IntAct's records for PubMed 26280580

B1: Ras-related protein Rap-1A (Homo sapiens), P62834 (parent)
chain: MREYKLVVLGSGGVGKSALTVQFVQGIFVEKYDPTIEDSYRKQVEVDCQQCMLEILDTAGTEQFTAMRDLYMKNGQGFALVYSITAQSTFNDLQDLREQILRVKDTEDVPMILVGNKCDLEDERVVGKEQGQNLARQWCNCAFLESSAKSKINVNEIFYDLVRQINRKTPVEKKKPKKKSCLLL

Variants of: B1
Settings: with braf_human BRAF

Variant	effect of a mutation on the interaction
R163T	with no effect
